In US20010010922:

How the values were obtained:
[1] = tested on: GST-BCL6ΔZFAla333,343 fusion protein
[2] = tested on: GST-BCL6ΔZFAla333 fusion protein
[3] = tested on: GST-BCL6 fusion protein (full-length BCL-6)

Sequence of Recombinant ERK2 (New England Biolabs) (P28482 2-360): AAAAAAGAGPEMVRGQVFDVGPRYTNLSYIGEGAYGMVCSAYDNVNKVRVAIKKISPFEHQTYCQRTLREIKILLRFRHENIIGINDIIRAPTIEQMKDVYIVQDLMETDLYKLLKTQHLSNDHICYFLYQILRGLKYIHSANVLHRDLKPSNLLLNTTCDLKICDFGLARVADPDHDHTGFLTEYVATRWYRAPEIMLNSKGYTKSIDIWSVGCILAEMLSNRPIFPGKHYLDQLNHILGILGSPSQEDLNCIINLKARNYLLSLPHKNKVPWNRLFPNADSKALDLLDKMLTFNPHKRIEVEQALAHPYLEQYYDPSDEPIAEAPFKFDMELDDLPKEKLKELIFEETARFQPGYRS

Recombinant ERK2 (New England Biolabs) was tested, and the “phosphorylation in ERK2 kinase assay in vitro ([gamma-32P]-ATP)” value (shortened to “phosphorylation in ERK2 kinase assay”) [1] was “phosphorylated at much lower levels than wild type BCL-6, with BCL-6Ala333,343 displaying the lowest levels”, the “phosphorylation in ERK2 kinase assay” value [2] was “phosphorylated at much lower levels than wild type BCL-6” and the “phosphorylation in ERK2 kinase assay” value [3] was “purified recombinant MAPK (ERK-2) can phosphorylate GST-BCL-6 fusion proteins in vitro”.
